Like-named read-outs stand apart in the source and are kept apart here. Where no end group is shown, it is not given here.
B1: Recombinant human integrin αvβ6 (complex)
chain 1: FNLDVDSPAEYSGPEGSYFGFAVDFFVPSASSRMFLLVGAPKANTTQPGIVEGGQVLKCDWSSTRRCQPIEFDATGNRDYAKDDPLEFKSHQWFGASVRSKQDKILACAPLYHWRTEMKQEREPVGTCFLQDGTKTVEYAPCRSQDIDADGQGFCQGGFSIDFTKADRVLLGGPGSFYWQGQLISDQVAEIVSKYDPNVYSIKYNNQLATRTAQAIFDDSYLGYSVAVGDFNGDGIDDFVSGVPRAARTLGMVYIYDGKNMSSLYNFTGEQMAAYFGFSVAATDINGDDYADVFIGAPLFMDRGSDGKLQEVGQVSVSLQRASGDFQTTKLNGFEVFARFGSAIAPLGDLDQDGFNDIAIAAPYGGEDKKGIVYIFNGRSTGLNAVPSQILEGQWAARSMPPSFGYSMKGATDIDKNGYPDLIVGAFGVDRAILYRARPVITVNAGLEVYPSILNQDNKTCSLPGTALKVSCFNVRFCLKADGKGVLPRKLNFQVELLLDKLKQKGAIRRALFLYSRSPSHSKNMTISRGGLMQCEELIAYLRDESEFRDKLTPITIFMEYRLDYRTAADTTGLQPILNQFTPANISRQAHILLDCGEDNVCKPKLEVSVDSDQKKIYIGDDNPLTLIVKAQNQGEGAYEAELIVSIPLQADFIGVVRNNEALARLSCAFKTENQTRQVVCDLGNPMKAGTQLLAGLRFSVHQQSEMDTSVKFDLQIQSSNLFDKVSPVVSHKVDLAVLAAVEIRGVSSPDHVFLPIPNWEHKENPETEEDVGPVVQHIYELRNNGPSSFSKAMLHLQWPYKYNNNTLLYILHYDIDGPMNCTSDMEINPLRIKISSLQTTEKNDTVAGQGERDHLITKRDLALSEGDIHTLGCGVAQCLKIVCQVGRLDRGKSAILYVKSLLWTETFMNKENQNHSYSLKSSASFNVIEFPYKNLPIEDITNSTLVTTNVTWGIQPAPMPV
chain 2: GCALGGAETCEDCLLIGPQCAWCAQENFTHPSGVGERCDTPANLLAKGCQLNFIENPVSQVEILKNKPLSVGRQKNSSDIVQIAPQSLILKLRPGGAQTLQVHVRQTEDYPVDLYYLMDLSASMDDDLNTIKELGSRLSKEMSKLTSNFRLGFGSFVEKPVSPFVKTTPEEIANPCSSIPYFCLPTFGFKHILPLTNDAERFNEIVKNQKISANIDTPEGGFDAIMQAAVCKEKIGWRNDSLHLLVFVSDADSHFGMDSKLAGIVIPNDGLCHLDSKNEYSMSTVLEYPTIGQLIDKLVQNNVLLIFAVTQEQVHLYENYAKLIPGATVGLLQKDSGNILQLIISAYEELRSEVELEVLGDTEGLNLSFTAICNNGTLFQHQKKCSHMKVGDTASFSVTVNIPHCERRSRHIIIKPVGLGDALELLVSPECNCDCQKEVEVNSSKCHHGNGSFQCGVCACHPGHMGPRCECGEDMLSTDSCKEAPDHPSCSGRGDCYCGQCICHLSPYGNIYGPYCQCDNFSCVRHKGLLCGGNGDCDCGECVCRSGWTGEYCNCTTSTDSCVSEDGVLCSGRGDCVCGKCVCTNPGASGPTCERCPTCGDPCNSKRSCIECHLSAAGQAREECVDKCKLAGATISEEEDFSKDGSVSCSLQGENECLITFLITTDNEGKTIIHSINEKDCPKPPNIP

Experiments:
[1] = molecular target: R01-MW; experiment: FACS
[2] = molecular target: B1; experiment: FACS; competition with yeast-displayed R01-MG
[3] = molecular target: B1; experiment: FACS; competition with yeast-displayed R01-MG

IC50 [2] [nM]	Binder	other results
–	B1	Kd [1]: 1.69 nM
0.469	{(19F)fluoropropyl}-GCILNGRTDLGTLLFRCRRDSDCPGACICRGNGYCG (designed binder, disulfide (positions not given here); not fully specified (C-terminus)) [[^19F]FP-R01-MG-F2]	–
0.383	GCILNGRTDLGTLLFRCRRDSDCPGACICRGNGYCG-NH2 (designed binder, disulfide (positions not given here)) [R01-MG synthetic cystine knot peptide (unlabeled precursor)]	–
–	{2‑(19F)fluoropropionyl}-GCILNGRTDLGTLLFRCRRDSDCPGACICRGNGYCG-NH2 (disulfide (positions not given here); not fully specified (bridges)) [[19F]FP-R01-MG-F1]	IC50 [3]: 0.541 nM
